Target: T1, human plasminogen, P00747
T1 chain: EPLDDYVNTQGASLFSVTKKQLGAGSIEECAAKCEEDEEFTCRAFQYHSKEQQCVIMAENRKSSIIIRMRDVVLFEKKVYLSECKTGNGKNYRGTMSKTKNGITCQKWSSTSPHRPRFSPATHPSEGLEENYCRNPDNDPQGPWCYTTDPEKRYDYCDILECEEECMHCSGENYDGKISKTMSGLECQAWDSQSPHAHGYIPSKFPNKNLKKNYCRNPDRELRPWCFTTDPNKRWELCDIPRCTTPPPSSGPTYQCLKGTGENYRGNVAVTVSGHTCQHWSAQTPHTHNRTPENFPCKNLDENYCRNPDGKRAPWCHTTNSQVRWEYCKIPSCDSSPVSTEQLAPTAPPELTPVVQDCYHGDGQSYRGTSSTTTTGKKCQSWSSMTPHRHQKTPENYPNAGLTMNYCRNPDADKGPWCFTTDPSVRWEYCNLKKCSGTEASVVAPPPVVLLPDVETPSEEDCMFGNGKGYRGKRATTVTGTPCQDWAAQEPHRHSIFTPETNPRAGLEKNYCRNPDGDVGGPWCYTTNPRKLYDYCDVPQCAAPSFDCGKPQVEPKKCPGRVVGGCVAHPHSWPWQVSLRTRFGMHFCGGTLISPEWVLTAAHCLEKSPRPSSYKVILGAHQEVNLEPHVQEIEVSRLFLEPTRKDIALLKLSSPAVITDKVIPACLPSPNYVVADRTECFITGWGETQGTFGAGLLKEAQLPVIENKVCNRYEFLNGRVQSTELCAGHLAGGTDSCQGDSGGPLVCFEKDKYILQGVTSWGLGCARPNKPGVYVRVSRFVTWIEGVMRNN

Protein	Specific Activity (U/mg)
SAK (Recombinant) (protein) SSSFDKGKYKKGDDASYFEPTGPYLMVNVTGVDGKGNELLSPHYVEFPIKPGTTLTKEKIEYYVEWALDATAYKEFRVVELDPSAKIEVTYYDKNKKKEETKSFPITEKGFVVPDLSEHIKNPGFNLITKVVIEKK	66 ± 3.5 U/mg
SAK S3C (protein) SSCFDKGKYKKGDDASYFEPTGPYLMVNVTGVDGKGNELLSPHYVEFPIKPGTTLTKEKIEYYVEWALDATAYKEFRVVELDPSAKIEVTYYDKNKKKEETKSFPITEKGFVVPDLSEHIKNPGFNLITKVVIEKK	60 ± 4.1 U/mg
SAK 1CCT (protein) SSSFDKGKYKKGDDASYFEPTGPYLMVNVTGVDGKGNELLSPHYVEFPIKPGTTLTKEKIEYYVEWALDATAYKEFRVVELDPSAKIEVTYYDKNKKKEETKSFPITEKGFVVPDLSEHIKNPGFNLITKVVIEKKAC	64 ± 4.5 U/mg
SAK 2CCT (protein) SSSFDKGKYKKGDDASYFEPTGPYLMVNVTGVDGKGNELLSPHYVEFPIKPGTTLTKEKIEYYVEWALDATAYKEFRVVELDPSAKIEVTYYDKNKKKEETKSFPITEKGFVVPDLSEHIKNPGFNLITKVVIEKKCC	65 ± 3.8 U/mg
SAK 1CNT (protein) MCSSSFDKGKYKKGDDASYFEPTGPYLMVNVTGVDGKGNELLSPHYVEFPIKPGTTLTKEKIEYYVEWALDATAYKEFRVVELDPSAKIEVTYYDKNKKKEETKSFPITEKGFVVPDLSEHIKNPGFNLITKVVIEKK	40 ± 4.3 U/mg
SAK 2CNT (protein) MCCSSSFDKGKYKKGDDASYFEPTGPYLMVNVTGVDGKGNELLSPHYVEFPIKPGTTLTKEKIEYYVEWALDATAYKEFRVVELDPSAKIEVTYYDKNKKKEETKSFPITEKGFVVPDLSEHIKNPGFNLITKVVIEKK	57 ± 3 8 U/mg
